The values below come from the DeepSol protein solubility set.

This data set is described as follows: soluble on expression in E. coli; label from the status in PepcDB or PDB records.
Take “PREFVLRPAPQGRTVRCRLTRDKKGMDRGMYPSYFLHLDTEKKVFLLAGRKRKRSKTANYLISIDPTNLSRGGENFIGKLRSNLLGNRFTVFDNGQNPQRGYSTNVASLRQELAAVIYETNVLGFRGPRRMTVIIPGMSAENERVPIRPRNASDGLLVRWQNKTLESLIELHNKPPVWNDDSGSYTLNFQGRVTQASVKNFQIVHADDPDYIVLQFGRVAEDAFTLDYRYPLCALQAFAIALSSFD”: the “soluble on expression in E. coli” value is listed as “soluble”.

Consider “GANRTLIVTTILEEPYVMYRKSDKPLYGNDRFEGYCLDLLKELSNILGFLYDVKLVPDGKYGAQNDKGEWNGMVKELIDHRADLAVAPLTITYVREKVIDFSKPFMTLGISILYRKGTPIDSADDLAKQTKIEYGAVRDGSTMTFFKKSKISTYEKMWAFMSSRQQSALVKNSDEGIQRVLTTDYALLMESTSIEYVTQRNCNLTQIGGLIDSKGYGVGTPIGSPYRDKITIAILQLQEEGKLHMMKEKWWRGNGCPE”, for which the “soluble on expression in E. coli” value is “soluble”. The value for “MSLGKALEIDLGNRLQALDIDGPTREILRECRPIIEKIIDEAVLDSYNKILAYPEVRDAYAGMKIEDACQAQRTHWIDDVFAGTFAEEQIRNGVEIFSKRQRQGLSLRWYFCFYSNILRCMIAAVYPQYRRDKEKLQRVIGALTRTVMFELEIASTAYMHSAQEQVAVALNDAAGQFEREGHHHHHH” was “soluble”. In the case of “MSLEKQKGLAIITGASQGIGAVIAAGLATDGYRVVLIARSKQNLEKVHDEIMRSNKHVQEPIVLPLDITDCTKADTEIKDIHQKYGAVDILVNAAAMFMDGSLSEPVDNFRKIMEINVIAQYGILKTVTEIMKVQKNGYIFNVASRAAKYGFADGGIYGSTKFALLGLAESLYRELAPLGIRVTTLCPGWVNTDMAKKAGTPFKDEEMIQPDDLLNTIRCLLNLSENVCIKDIVFEMKKSIIEGHHHHHH”, the “soluble on expression in E. coli” value is listed as “soluble”. Take “GSMPTTCGFPNCKFRSRYRGLEDNRHFYRIPKRPLILRQRWLTAIGRTEETVVSQLRICSAHFEGGEKKEGDIPVPDPTVDKQIKIELPPK”: the “soluble on expression in E. coli” value is reported as “soluble”. “MAYSKIRQPKLSDVIEQQLEFLILEGTLRPGEKLPPERELAKQFDVSRPSLREAIQRLEAKGLLLRRQGGGTFVQSSLWQSFSDPLVELLSDHPESQFDLLETRHALEGIAAYYAALRSTDEDKDRIRELHHAIELAQESGDLDAESEAVLQYQIAVTEAAHNVVLLHLLRCMEPMLAQNVRQNFELLYARREMLPLVSTHRTRIFEAIMAGKPEEAREASHRHLAFIEEIMLDRSREESRRERALRRLEQRKN”: the “soluble on expression in E. coli” value was “not soluble”. The value for “MLGRTDISTFPRLKLGFWGEVTLTFPAVCDAAEIVLPANWADMSVAANNDNAAINTNNVNFLHISSYIRILVTTIPLRCGKTRDNPH” was “not soluble”; that for “MHTNERKTVVYEYQNEQEVVMKVKELELQGVRHDDIYVLAHEKHITKRIADDTNTNTIGVKEQGLGTSIINFFSKKGDELRNQMEEMGLSKEEANLYEEKLDQGKILLLVTAEVPMANDRQPQNYHSL” was “not soluble”.

“MKRFRKNNLELELIRELSEIDFYNISAPLNSKEFWKEWQEKFNRANLTRIALRNILRNKRLSPKEYRKVKNSIKKYEDIINYLNALKLTALNARGSFGGYFIEFDEDEEENEGGT”: the “soluble on expression in E. coli” value is on record as “not soluble”. With “MANVNTFSIVKNVKLDLGIEDDNQDQLLEMLLNRITDHFKANYGVLEIDNAFSFVLEDCLIARFNRRGSERAKTEEVEGHKTTYYDHLNEFEPYDAMIMAKLNLIKDKSRKGGLYFL”, the “soluble on expression in E. coli” value is reported as “not soluble”. The value for “MRKIGIIGGTFDPPHYGHLLIANEVYHALNLEEVWFLPNQIPPHKQGRNITSVESRLQMLELATEAEEHFSICLEELSRKGPSYTYDTMLQLTKKYPDVQFHFIIGGDMVEYLPKWYNIEALLDLVTFVGVARPGYKLRTPYPITTVEIPEFAVSSSLLRERYKEKKTCKYLLPEKVQVYIERNGLYESLAAALEHHHHHH” was “soluble”; that for “SFTMAQQSGGGLTRGSFPEGFVFGTASAAYQYEGAVKEDGRGQTIWDTFAHTFGKITDFSNADVAVDQYHRFEEDIQLMADMGMDAYRFSIAWSRIYPNGVGQVNQAGIDHYNKLIDALLAKGIQPYVTLYHWDLPQALEDKYKGWLDRQIVDDFAAYAETCFREFGDRVKHWITLNEPHTVAIQGYDAGLQAPGRCSVLLHLYCKAGNSGTEPYVVAHHFILAHAAAASIYRTKYKATQNGQLGIAFDVMWFEPMSNTTIDIEAAKRAQEFQLGWFADPFFFGDYPATMRARVGERLPRFTADEAAVVKGALDFVGINHYTTYYTRHNNTNIIGTLLNNTLADTGTVSLPFKNGKPIGDRANSIWLYIVPRGMRSLMNYVKERYNSPPVYITENGMDDSNNPFISIKDALKDSKRIKYHNDYLTNLAASIKEDGCDVRGYFAWSLLDNWEWAAGYSSRFGLYFVDYKDNLKRYPKNSVQWFKALLKT” was “soluble”; that for “SAEAGTGEPSPSVEGEHGTEYDTLPSDTVSLSDSDSDLSLPGGAEVEALSPMGLPGEEDSGPDEPPSPPSGLLPATVQPFHLRGMSSTFSQRSRDIFDCLEGAARRAPSSVAHTSMSDNGGFKRPLAPSGRSPVEGLGRAHRSPASPRVPPVPDYVAHPERWTKYSLEDVTEVSEQSNQATALAFLGSQSLAAPTDCVSSFNQDPSSCGEGRVIFTKPVRGVEARHERKRVLGKVGEPGRGGLGNPATDRGEGPVELAHLAGPGSPEAEEWGSPHGGLQEVEALSGSVHSGSVPGLPPVETVGFHGSRKRSRDHFRNKSSSPEDPGAEV” was “soluble”. The value for “MSLTLLKGRRKVDTIKVGILGYGLSGSVFHGPLLDVLDEYQISKIMTSRTEEVKRDFPDAEVVHELEEITNDPAIELVIVTTPSGLHYEHTMACIQAGKHVVMEKPMTATAEEGETLKRAADEKGVLLSVYHNRRWDNDFLTIKKLISEGSLEDINTYQVSYNRYRPEVQARWREKEGTATGTLYDLGSHIIDQTLHLFGMPKAVTANVMAQRENAETVDYFHLTLDYGKLQAILYGGSIVPANGPRYQIHGKDSSFIKYGIDGQEDALRAGRKPEDDSWGADVPEFYGKLTTIRGSDKKTETIPSVNGSYLTYYRKIAESIREGAALPVTAEEGINVIRIIEAAMESSKEKRTIMLEHEGHHHHHH” was “soluble”; that for “MEKLINRVGPNGESRAQAVTSDQEKRLLHQLREITRVMKEGKFIDTSPEKEAEEAPYMEDWEGYPEETYPIYDLSDGIKRRQETILVDYPDLKEPSAEEIAEQMGEIEEEGSERLSWDHLPTDPGAQKDNSVAPCDPKPESCSCCVHEEEDPAVLAENAGFSADGYSEQEEATKENLPQDFTNEGLGVSTDNAHVGGMLRKRNPQGFE” was “not soluble”.

In the case of “AIAVHRDPAEELWCELWQPGVDITRKMNAIFGLKEIGTERAVTLLCAALLDARERSVLVRHEIAYVLGQIQSAASIKTLTDRLIDTDENSIVRHECGEALGAVRAFAVRPILQKLCGDAVPEVRETCVLALERLRWLEEKSTNEERVRETSAKAFKLFETVDPAPAFVAPDDLEASWSNAELGELLLNENEPLFRRYRALFTLRDRNTDDTAGVIAAALRRDTSSALFRHEVAYVLGQMSRACTLPALESALADTHEHAMVRHEAAEAIGAIGNSSACDILRRFLRDANVIVRESCQVALDIAGISDDCQFMD”, the “soluble on expression in E. coli” value is “soluble”.

“MGSDKIHHHHHHMKLLILGNHTCGNRGDSAILRGLLDAINILNPHTEVDVMSRYPVSSSWLLNRPVMGDPLFLQMTQHNSAAGVVGRIKKVLRRRYQHQVLLSRVTDTGKLRNIAIAQGFTDFVRLLSGYDAIIQVGGSFFVDLYGVPQFEHALCTFMAKKPLFMIGHSVGPFQDEQFNQLANYVFGHCDALILRESVSLDLMKRRNITTAKVEHGVDTAWLVDHHTEDFTASYAVQHWLDVAAQQKTVAITLRELAPFDKRLGTTQQAYEKAFAGVVNRILDEGYQVIALSTCTGIDSYNKDDRMVALNLRQHISDPARYHVVMDELNDLEMGKILGACELTVGTRLHSAIISMNFATPAIAINYEHKSAGIMQQLGLPEMAIDIRHLLDGSLQAMVADTLGQLPVLNARFNEAVSRERQTGMQMVQSVLERIGEVK”: the “soluble on expression in E. coli” value is given as “not soluble”.

Regarding “MISVMQQMINNDSPEDSKESITSVQQTPFFWPSAAAAIPSIQGESRSERESETGSSPQLAPSSTGMVMPGTAGMYGFGPSRMPTANEFGMMMNPVYTDFYQNPLASTGWYSYGQPYQFTANYSIPSLDGNLSDITIPTTAGSSAATTPNAAMHLPWAISHDGKKKRQPYKKDQISRLEYEYSVNQYLTNKRRSELSAQLMLDEKQVKVWFQVCYRQYSAESLEIINVNFYLMS”, the “soluble on expression in E. coli” value is recorded as “not soluble”. Turning to “MGWKMQATVTEIGKHAIDDSEKMIILFGETATDTLKQHAVIQSFPEKDQVTLAEGDHLKIGDTNYTITKVGSFANSNLQSIAHSTLIFADAPTDEDDVIRNGVYLTPHQLPKITIGTTIDYLVNGA”, the “soluble on expression in E. coli” value is listed as “soluble”. The value for “MGSDKIHHHHHHMSRPRIHPLQALFGAHEHRPDLPVCDHYAGVEPRMRKALALQADMADTALFDVTLDLEDGAPVGGEPEHARLAAELVSSAANRHGRVGVRVHPYPHPSFADDVRSLLAGAGERLAYLMIPKAQGVEELRDAIAAIEATRREQGLARAVPVHALVETHGALRDVQAIAALPAIESLSFGLMDFVSAHHGAIPAFGMSLAGQFSHPLVLRAKLEISAACHAAGKLPSHCVVTEYSDTQAIAQAATRASRELGYARMWSIHPNQIRPIVEAFAPVPAEIEAALDILLAAQAADWAPIAHRGLLQDRASYRYHWHVLERAARTGRSLPDTARSAFFATAAA” was “not soluble”. The value for “QLGKDHAIVERNEKIDDAFKSDPASYQSVYDAQGRIKDGQEWMRVSLKGRFDANNEVLLRMRPVEGTPAYQSLVPFTLESGESLLINRGFVPGDAANVPELAAVPTETVTIVAHARANEGMPASAPMSAHGYQQVYGINTTQISEITHTTLGTDFAQLSQDQPGVLNAMPIPQLDRGNHLSYGLQ” was “not soluble”; that for “MFYRDVLIESRERNIFMSKELQIRNSTVDFLVFTRDAREDGIEVRVQNGDVWLTQKAISQLFDVDRSVVTKHLSNIFKEGELDENSTCANFAQVADNGKTYNYKFYSLAAIIAVGYRINSERAMQFRTWATKVLDTFTKQGYVLDKSRLINGQIFDEDYFEHLIAEIQEIRASERRFYQKITDIYATAVDYDKNSQVTREFYATVQNKMHYAVHGNTAAEVIVARANHNKKHMGLKSWKNAPDGKIVKTDVSIAKNYLEKEELAELNEIVTMYLDYATRQARRHIPMTMEDWKTKLDAFLRFNDAEVLQDKGKVTAAIAKEFAESEFEKYRVIQDSLYESDFDKLMNDMEKNDAIH” was “not soluble”. For the sequence “SLKTKTFKMQLQFLSEQNLEINNNNQLLNQEKITYLQKIEQLKCKLEYQERMIKDSEKIREESFASAKAALFDLGKDLSKQLIEIHKMENNTTRELAEKNIETASQKFNTELERLITMVGALNKDIEQSKGTVDLIKQSLLSPIGAGLLSEITLENILKSSGLRPNLDFIMQYSLTTSDSVKLRPDAIIFLPSGNLMVIDSKASKFLVDSQDNSVHLSKTMNYHLKTLTNKDYAENILTNLNKKTQNFNNVITLMFLPTEQAVEKVIAANPEFLQKAWGCNIFPVGPAGLMNMLSFAKFQITDNRRSENYKVIIEEVRKLLSSIGTIADYSKKIGYNLQNMVTNYDKFAASFNRNVMSRVKSIQKLGIDSGNKIIPATLERYQIVSAKSEIIEVDVENQHK”, the “soluble on expression in E. coli” value was “soluble”. Take “MSLTQKPLTVVVGPPSAGKSTWVKAAAKASDLVIDLDILAPTVIGKPMWIADSRERSLVIRERNSLVAEYMRGKTAHPHCFLIDTAGSFKRRKFWLDRGADVVLLDTDKDICRARIRQCSARPESTRAGRLAAVDRWEEGHHHHHH”: the “soluble on expression in E. coli” value is given as “soluble”.
